Test results as given in the DeepSol protein solubility set.

assay: soluble on expression in E. coli; label from the status in PepcDB or PDB records

Soluble on expression in E. coli, not soluble:
MGSDKIHHHHHHMEKDKKIPAKIYPFYPNGQFYFERGVEAFRDQRIKEAIRYLVRASELEPGEAVILCQLAICYTEIGQFHKSNQLLREVLEQRNGNMEYCYYFIANNFAYMKDYRRALQYANRYLDSSTDGEYTEEAKDLIEVLLEETPFGETIENGFSKLEQEFYSYKKEINRYLAEEDSASACDILRKVIDEKPNFWPAYNQLASLYFEQLKEEEGVRVLSDLLSRNPGNLLGICDLFIYHFYKGNRKEADELYLELRDVLPVLAHHKEKLGLIHAMMGEYEEADDLLEQVADLEVTERSKYYYFRAKSSYYLGDVEGAKMFWHSFLECDLYEDVRFPWEQEPDLTNDTRLVLEMLQEEDDLTHMLGVYALTISGNRPELVLFHPLLDMSDWSYMEHLMFTNFDYFPDGAIEQNGYLIAKAMIILKENGILLNEEYMALYKQMFSLVLIDAGKDLILGRYTIETVASAIAKLFLPHLKLQLVEEFECSKCARDIERVLSR, MGSDKIHHHHHHMEKKRILFLANHFITLYSFRKEMIKEMVKKGHELYLSLPKSEENKYFEDLGCHIVETEIDRRGVNPMKDLKLIYFYKKMIPLVNPDIIFSYTIKPNIYGTIASNGKYKQVCNITGTGETFLKRSIVSTICKVLYKLSIKKCYKVFFQNTGDRDFFIKEGLIRENYAMLPGSGCNLQQHVFMPLPEGDEIRFLFIGRVMKLKGIDQYLQAAEIVKKKYPNTKFYIAGWNEQLEYMKLVEEAQKTGSVEYIGFRKDIDQWIEKCHCTILPSHGGEGVPNVLLESSATGRICIGSKINGTMDVIDDGKTGYLFNTGDGEDLARQIEKFIQLSPEEKASMGKVAREKVEREFDRQIVVKAYLDEVTKC, MGSDKIHHHHHHMEKLFTYKEFVDMMQKYGIRHTKRKLRRGENLMENASKFSNVVLLINGYISSYTYESPEKLLSIFEPGIFLRYSILEDQPEFVTNIALSDNCEVYEYKKEDIEYALTLFPENFGFQYFFLKRIGRHLYYRALLNGKEHKEKLYYAMKYLGELIGKTDENGNVSLPPEVTLKVLIEYSTLSKAAFYRQRIRLLEQEILKPHENTFIVQKKVASHYENQLTSI, MGSDKIHHHHHHMEKLQESMYQLIVETSTNLPNDVRRAIAEAKAKENAGTRAALSLSTITENIKMADENISPICQDTGMPTFEIKVPVGVNQIEMKKAIYAAIEQATKDGKLRPNSVDSLTGKNSGNNLGEGTPVIHFEQWEEDYIDARLILKGGGCENKNIQYSLPAELEGLGRAGRDLDGIRKCIMHSVYQAQGQGCSAGFIGVGIGGDRTTSYSLAKEQLFRKVDDVNPNDDLRKLEEYVLENANKLGIGTMGFGGEATLLGCKVGAMNRLPASFFVSVAYNCWAFRRLGVELDAETGEIKKWLYKDGERVDLNEVASQVAATAETTEVREVVLEAPVTEEQIRELKVGDVVIINGMLHTGRDAIHHHLMDHDAPIDLDGQIIYHCGPVMLQDDAGEWHVKAAGPTTSIREEPYQGDIMKKFGIRAVIGKGGMGPKTLKALQEHGGVYLNAIGGAAQYYADCIKKVKGVDLMEFGIPEAMWHLEVEGFAAIVTMDSHGNSLHEDVDKSSLEKLEQFAEKVF, MGSDKIHHHHHHMEMFAQFSVEGQRMYGMLHTPDGSATGQQAPPQGWPSVVIVHGFTGDKVSSHRLLVLLARRLTAAGIAALRFDCRGSGESQGDFSEMTVGREVQDVEAAFDYVRHQPGLDPERVMLLGYSMGGLVSALAAEKVRPHRFALWSPALPELWLRHLRGGLLPPVISDYGGWPLGRAFLQEVVQTRPLEAAARWGGVAHVFHGDRDQTCPVEWGVRTPKPCAATPPRFPARGTRMTRSNR, MGSDKIHHHHHHMEMVMKNKRVAIIGAGPSGIAQLRAFESAEKQGHEIPELVCFEKQDTWGGQWNYSWRTGTDSYGEPVHSSMYRNLWSNGPKEVLEFAEYSFDEHFGKPISSYPPREVLWDYIAGRAKKSNVEKYIKFAHVVRWVSFDEATKLFTVTVENLRTGETSSDTYDNVIVGAGHFSFPNVPHFDGVETFPGQIMHAHEFRGAEAVADKDILLIGASYSAEDIGTQAYKMGARSVTFSYRSNPMGYEWPEEMTELPLVERFDGSEVHFVNGEKRKVDIVVFCTGYLHHYPFMPSELTLSSPNNLYPDTLYRGVVSEANNQLFWLGAQDQWLTFNMFDAQAWYVRDVILGRVALPSKEAQRNHMDKWLSRFEGLKSENDQIDFQCDYVEDLIDQTDYPSFDLKEVANILKGWVKSKEEDILNYRDYTYTSVMTGTTSVEHHTPWMIELDDSLERYLSEPQEDEARQVYRGKKVRDKA, MGSDKIHHHHHHMENIALLGIDLGKHIFHVHAQDKAGHQLWRRKLNRKQLVELVANTPACRIVMESCSGAHHFARRFLQFGHDVKLIAPQYVKPFVKGNKNDFVDAEAICEAASRPAMRFAAVRNEQQQTISALHRTRDMLIRSRGSAHNQIHAYLVEFGVAIGTGPAAIRKLPAVLQAMTYRRALSPCWSNFGITFFISTSRSPLSSAN, MGSDKIHHHHHHMENIAQWVGIDVSKATLDVYIRPLGKAMIVANTESEISNLVKLLLSYSLNLIVLEATGGLETELVIQLQAALLPVALINPRQGRDFAKATGKLAKTDAIDAQILAHFGEAMKPQVLAIQSETARQLSELISRRRQLVEMQTAEKNRRSLTRGQALADIEAHIEYLEEHLKQLNQKIAELTQNNLQWIDKVNLLKSTPGIGQVISTTLVSDLPELGQLTAKQISRLVGVAPINHDSGQHKGKRMINGGRAHVRATLYMGAVVAMVHNPVIKAFYERLIERGKSKKLALTACVHKMLVILNAMVRDNLPWRVTENLQPIANA, MGSDKIHHHHHHMENVSSVTSDGSVADVHAERWQELLARLDADAPDIAEGTAAKLLATIPGYELVDAGPIRESSIRNTALIIRVINAGTEPKAEDLPEALRLADERIAQNVPLGSVLHGFRMSLGEILEHLVQLGPEYNIDPGRMLRWSTLMWAVNDAFSTRATRVYRDHEVATAIADSVRRSEWIGKAVSEGSELSELLWGAAMYDVPADTPLRALAATSPDHAKAETQIQKWTQRAGVRVLASVQPSVIVGIVIGEPKRNVDGPGFAVGLGRAEVLSKLADSYKDASLVLKAADNLKLNEVQRAQDLSWKLAIHASPRVTEILAQKYVKPLRESGEFAHEIVESLRAYVDNQMNIPAAARSIPVHVNTLRYRLRRFEELTGCYLEDTSTVIEVSWVLEVFGREL, MGSDKIHHHHHHMEQLRAELSHLLGEKLSRIECVNEKADTALWALYDSQGNPMPLMARSFSTPGKARQLAWKTTMLARSGTVRMPTIYGVMTHEEHPGPDVLLLERMRGVSVEAPARTPERWEQLKDQIVEALLAWHRQDSRGCVGAVDNTQENFWPSWYRQHVEVLWTTLNQFNNTGLTMQDKRILFRTRECLPALFEGFNDNCVLIHGNFCLRSMLKDSRSDQLLAMVGPGLMLWAPREYELFRLMDNSLAEDLLWSYLQRAPVAESFIWRRWLYVLWDEVAQLVNTGRFSRRNFDLASKSLLPWLA, MGSDKIHHHHHHMERCSVLRIKRLPESLVRKIAAGEVIHNPSFVLKELVENSLDAQADRIVVEIENGGKNMVRVSDNGIGMTREEALLAIEPYTTSKIESEEDLHRIRTYGFRGEALASIVQVSRAKIVTKTEKDALATQLMIAGGKVEEISETHRDTGTTVEVRDLFFNLPVRRKSLKSSAIELRMCREMFERFVLVRNDVDFVFTSDGKIVHSFPRTQNIFERALLILEDLRKGYITFEEELSGLRIKGIVSSREVTRSSRTGEYFYVNGRFVVSEELHEVLMKVYDLPKRSYPVAVLFIEVNPEELDVNIHPSKIVVKFLNEEKVKKSLEETLKRNLARKWYRSVAYEEISSRALSVAEAPSHRWFLVKGKYAVVEVEDGLLFVDLHALHERTIYEEILSKKSWGKRRVKRNITVVLSREEKQKLEEYGFSFQGEEGALKVIEIPEFLTEDVVEEFFRDFPVDEKLKERIALAACKLATKSGEFDEEIASKLLDVFFKKRFERCPHGRPISFKISYEDMDRFFER, MGSDKIHHHHHHMERTDDESNKQPVILPPMIRIAYCTPSLHIPGGVERVLTTKANYLAENGNYDIYILLTDGKGKPPCYTLSPKVKIIQLDIDFEELWELPLWKKVPVYLKKQRIYRRKLSAALSHLKPDITVSLLRREINFITSLKDGSKKIGELHVNRKNYRNFEKNESNFIKELFAKLWMKSLVRHLKKLDKFVVLSEEDRANWPELQNVKVISNPLPFQSGTFSDLNNKRITAAGRYTYQKGFDLLLEAWSKICNRHPDWELHIYGKGNKTTYQVLAGKWKLKNLFLENATPDMLCKYHESSIFVSSSRFEGFGMVIAEAMACGVPAVSFACPCGPKDIIRDGEDGLLVENGKTEELAEKINYLIENEQIRKEMGKKARINVQRFAEDVIMQQWIQLFNNLLNGTKQ, MGSDKIHHHHHHMERTNTTTFKFFSLGGSNEVGRSCHILQYKGKTVMLDAGIHPAYQGLASLPFYDEFDLSKVDILLISHFHLDHAASLPYVMQRTNFQGRVFMTHPTKAIYRWLLRDFVRVTSIGSSSSSMGTKDEGLFSDEDLVDSFDKIETVDYHSTVDVNGIKFTAFHAGHVLGAAMFQIEIAGLRVLFTGDYSREVDRHLNSAEVPPLSSNVLIVESTFGTATHEPRLNRERKLTQLIHSTVMRGGRVLLPVFALGRAQEIMLILDEYWSQHADELGGGQVPIFYASNLAKKCMSVFQTYVNMMNDDIRKKFRDSQTNPFIFKNISYLRNLEDFQDFGPSVMLASPGMLQSGLSRDLLERWCPEDKNLVLITGYSIEGTMAKFIMLEPDTIPSINNPEITIPRRCQVEEISFAAHVDFQENLEFIEKISAPNIILVHGEANPMGRLKSALLSNFASLKGTDNEVHVFNPRNCVEVDLEFQGVKVAKAVGNIVNEIYKEENVEIKEEIAAKIEPIKEENEDNLDSQAEKGLVDEEEHKDIVVSGILVSDDKNFELDFLSLSDLREHHPDLSTTILRERQSVRVNCKKELIYWHILQMFGEAEVLQDDDRVTNQEPKVKEESKDNLTNTGKLILQIMGDIKLTIVNTLAVVEWTQDLMNDTVADSIIAILMNVDSAPASVKLSSHSCDDHDHNNVQSNAQGKIDEVERVKQISRLFKEQFGDCFTLFLNKDEYASNKEETITGVVTIGKSTAKIDFNNMKILECNSNPLKGRVESLLNIGGNLVTPLC, MGSDKIHHHHHHMERVALACWDDFEAQLKKLDEEANAVEDARGDVRASGYLFRGHGDADYPLQTSLERFFARPLSLADYYRLALVAKPRLEAFTGRRWELPSQEAYAAWLEGAAGSTLDDYPAYDYLAYLRHHGFPSPLLDWTQSPYVAAFFAFRYPLPGAKAVAVYAYRDAPDAKTASSGAARIHRQGPYVSSDKRHFLQQSQYTFCTRTDDAGVVGYIGHEQAFRDVSPADRIRKFLIPLSARRQALMQLNRMNINAFSLFGSEDSLVETIAISDIYLRGGDL, MGSDKIHHHHHHMESIKQIYRMGHGPSSSHTMGPMRAAQMFLERNRGAVRFNVTLYGSLAATGKGHMTDAAILEVLQPVAKTNITWEPKTFLPFHPNGMLFESYNESGEELDTWTVYSIGGGTLANESFNELRTEQVYDMHTIKEIQAWCEKTGHSYWEYVEQHEGPSIWDYLAEVWEVMQDAVRRGLEAEGILPGGLGIRRKASDYMIRAKGYGSSIKSRGMVYAYALAVSEENACGGKIVTAPTCGSCGVMPAVLYHLKETREFRDSRILRALATAGLFGNVVRTNASVSGAEVGCQGEVGVACAMAAAAASQLFGGTPAQIEYAAEMGLEHHLGLTCDPVCGLVQIPCIERNAFAAARALDANTFSNFSDGKHRVSFDQVVEVMRQTGNDLPSLYKETSEGGLAKNMENSNN, MGSDKIHHHHHHMETISQEKAIEAMPLEGAERTRFWRDPRFKGMECLSATFITHEFAPHAHDTFSIGAIEAGSQISTIKGERSQTGPGDLYLINPDEIHDGHPGHEGYRYRMVYPPTDLLVEILEDVTGRSFKGTPSFSRLLLTDRELALGFHRAHRALEGKVGTLEADESMFGFLARLFERHGNAIIVPLQTRESSAVHRARDYLVENYTHDIGLEELAKLAGLSRAHLIRAFRKEFHITPHAFLTDKRVREAKALLRRGWSAADTAYHCGFADQAHFSRHFKARTGVTPGAYRSA
